Reference: the supplement of paper PMC12042874
± gives the uncertainty stated by the source.

Assay: amyloid nucleation score (Sup35N fusion, yeast selection) (log enrichment); library NNK1; higher = more nucleation; inactive = no reads after selection
Method in brief: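 The nucleation score is a DiMSum log enrichment of output over input reads, centred on the mode score of non-aggregating sequences. Sequences under 100 input reads were excluded, and reads came from Illumina sequencing of plasmid inserts. Psi-negative yeast expressing Sup35N fused to peptides of 20 random codons were induced with 100 μM copper sulfate for 24 hours and grown 7 days at 30°C on medium lacking adenine and uracil. Random libraries had three technical output replicates.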

In order of rising amyloid nucleation score:
1. SADSGSQSEEQSKVMRMVYG  -1.64 ± 0.83
2. SGWNEFTRGTTRVHWRNQYS  -1.48 ± 2.4
3. SFLLNPTADMNHCFGDVFGG  -1.44 ± 1.4
4. SKIGDEM  -1.29 ± 1.2
5. SDGCYALIWFGREQ  -1.24 ± 1.1
6. SMESLTVEAMNSVEAFPVTY  -1.22 ± 0.73
7. SLITGIRRSGMAICLDLWAG  -1.21 ± 2.7
8. SFVSYYLLS  -1.09 ± 1.9
9. SEGSLLYTMWGTLVDWSSCV  -1.08 ± 1.4
10. SITSSYKYGKVSWSMSLGVG  -1.07 ± 0.46
11. RVYENNIY  -1.05 ± 1.7
12. RYWFLSYFHPANNYDDWKNC  -1.03 ± 1.2
13. SKLKAYICLCRMEIVLIPRF  -0.978 ± 1.7
14. SMSAQPFCNHV  -0.926 ± 0.91
15. SHTHEHKFSSSRCGELNSEK  -0.902 ± 0.38
16. SIVKRNLNAFAGLSLYMIFG  -0.764 ± 0.54
17. SIPFGIIMETCENLTDFAVY  -0.74 ± 0.85
18. SLISCEWSYTWCGKFVILLV  -0.707 ± 1.1
19. SDFVWRCFAMSIRLKRLYRS  -0.68 ± 1.7
20. SLTAVISTKVL  -0.663 ± 1.7
21. SFMAVSKGFMTIISSYYLC  -0.662 ± 0.32
22. RYVGLGGFM  -0.655 ± 0.46
23. SCEGGCAGSCGVP  -0.641 ± 1.5
24. SLPRSSIRYRFQCVRLESVM  -0.601 ± 0.47
25. SINRRALRLGHHSSGVMAGL  -0.547 ± 1.3
26. SGWYDP  -0.523 ± 0.7
27. SKGPWGLY  -0.517 ± 1.1
28. SDYMLNFCYSGLIVRMVFAA  -0.508 ± 0.98
29. SFAFAAAYAGEEENRLLMRL  -0.478 ± 0.34
30. SLVFQDRRYLTAFLGFVLWL  -0.476 ± 0.51
31. SGFRVKQYMFLCFY  -0.473 ± 0.73
32. SLIISKEGRYVFYVCLRGWW  -0.447 ± 0.42
33. SGKLCWLCVNCVILGSCKSL  -0.442 ± 0.73
34. SLFPVTVRKDCCLT  -0.434 ± 0.39
35. RWDSRQGFSRASQVARRADS  -0.391 ± 0.39
36. SLVYYLGEWV  -0.366 ± 0.34
37. SFDGDRLNVVMAQWL  -0.357 ± 0.58
38. SLNFT  -0.337 ± 0.31
39. SFVHYFKESLAVSSLIRLSN  -0.333 ± 1.1
40. SDVVFYFGDAGFRMLSEDSR  -0.326 ± 0.55
41. SMGLHLMQMAAGEHIGRNR  -0.31 ± 0.4
42. SCMTPMYRCSILLLA  -0.306 ± 0.42
43. SKNHSFDSYVMTVYFHHCGK  -0.291 ± 0.4
44. SMTRIANSMINVFGENPSNS  -0.267 ± 0.69
45. RWSRI  -0.253 ± 0.23
46. RYRNVVRSFFNEYRLCPGIE  -0.235 ± 1.4
47. SELWPRVDYCLATYSINSYA  -0.234 ± 0.3
48. SGRLVSRGTKHNQSSRCE  -0.232 ± 0.9
49. SMFASL  -0.229 ± 0.43
50. SGSNEWSRENLIGVFVVPGQ  -0.21 ± 1.1
51. SLMVSRGDTCG  -0.181 ± 0.35
52. SEMHHCTRGG  -0.167 ± 0.9
53. SKFVSKNCWTARGAL  -0.166 ± 0.48
54. SGNGG  -0.158 ± 0.34
55. SFVYS  -0.157 ± 0.4
56. SFQFVSSCDIRRFAISRATG  -0.152 ± 0.47
57. SLPITLLPKGFATKVFVRVC  -0.127 ± 0.72
58. RWGRESRLRV  -0.122 ± 0.29
59. SLQTTWLKNLGDLSSSREAS  -0.121 ± 0.73
60. SFFRNLLYFMIRCGNGYRET  -0.109 ± 0.93
61. SFRKRQVVLVSANNDSVWKC  -0.097 ± 0.57
62. SGFENRDSIPIAPCIRLLLV  -0.056 ± 0.59
63. SGTAVSIVAWYTMTQLDHAG  -0.001 ± 0.37
64. SEIYSTWNKV  0.002 ± 0.48
65. SIVVLGASTWR  0.032 ± 0.61
66. SDMSPNTGFG  0.073 ± 0.8
67. RYLFLDWSSESRCPFAASNE  0.104 ± 0.84
68. SHCCLDQLGVSDKAR  0.142 ± 0.62
69. SFSIGSFSAPLVAERFCCYT  0.163 ± 0.48
70. SCTWYKFWRKSIAMILAILS  0.169 ± 0.9
71. SHDSKAAHPWSLRNYVATRR  0.182 ± 0.42
72. SIFSSWMSWGLII  0.194 ± 0.39
73. SASYNFTSCFKFLRRKIVIK  0.196 ± 0.24
74. SMWTKKLFMFHNGI  0.201 ± 0.56
75. SCSPPIA  0.223 ± 0.46
76. SGKTALNSGSFKFLTSSICG  0.224 ± 1.4
77. RWRFEVIKVTSFYMSFLKSA  0.234 ± 0.47
78. SEWAMRITLATASSQTGGSE  0.235 ± 0.32
79. SGNTSPCCVSKFDLPHSTGK  0.245 ± 0.3
80. SESTYYDIQLPVHMLVDMSE  0.257 ± 0.24
81. SGGMFQVICLV  0.263 ± 0.34
82. SISRGWFMWEDNRISRFLLI  0.266 ± 0.37
83. SLIKGSTKLPR  0.273 ± 0.6
84. RYKIQPAIPVQEGLMGLSDP  0.282 ± 0.43
85. RWNRTRFPHLYCKIGEKCIY  0.312 ± 0.33
86. SFLNMGCRTVYRC  0.331 ± 0.61
87. SGCWT  0.331 ± 0.8
88. SITVPGFVAQISGVPIREYC  0.348 ± 0.79
89. SGMFYILPTSPGYAHEVPRR  0.393 ± 0.35
90. SASLS  0.396 ± 0.71
91. SITFRRSYTNM  0.411 ± 0.67
92. SKRLACSYSSMFVKCSEYKL  0.413 ± 0.97
93. SCFFKKMDMDT  0.436 ± 0.69
94. SHTCYRIVTAPDTLLVSLGV  0.438 ± 0.36
95. SFLSCRWLVFRLMKLRYICA  0.444 ± 1.4
96. SFEDLEM  0.457 ± 0.85
97. SLDVILVPMCTFCRGMAYCS  0.457 ± 1.1
98. SITWNPPVPVRTNVVDRNLG  0.48 ± 0.52
99. SDYGLGMSDWGDFMDRVGLR  0.527 ± 1.2
100. SLFLMIVVYHVHVRALYILV  0.531 ± 0.93
101. SETYTPDRYNVRT  0.536 ± 1.4
102. SHTAVFSRAAIEMCCRDWRA  0.537 ± 0.47
103. SFDLGYPIFCKYTRT  0.576 ± 0.52
104. RYVHSAQLFVNATPHRLRLV  0.578 ± 0.34
105. RWVVSVPISCARACFSG  0.579 ± 0.73
106. SCVYCMSRSNWILVWMALLQ  0.614 ± 0.45
107. SDNIYVMAWCSCNAARSIVF  0.616 ± 0.18
108. SGHACTGR  0.616 ± 0.4
109. SANRA  0.62 ± 0.41
110. SAFFYDSFYRMRLSLFIGYG  0.63 ± 0.55
111. SCMESSVTL  0.656 ± 0.35
112. SHRYFKWLRSIDEEVVESL  0.677 ± 0.9
113. SDFYLGSRVTCGLNLSMAMG  0.686 ± 0.62
114. SEWIKLRVRLDLSLVAFKII  0.686 ± 0.39
115. SGCSRRCWLGSRPGSWGACC  0.698 ± 0.45
116. SEGCMSGRLCDRGVASFVWL  0.7 ± 0.97
117. SLMWLWIFSRAGSLSLLLIA  0.718 ± 1.2
118. SMTKSIGMRSYGMVAHGAGS  0.722 ± 0.45
119. SLFSWVCRSITGPILRISLR  0.73 ± 0.24
120. SATPGRGY  0.851 ± 0.24
121. RWVTSLRPNLDLS  0.869 ± 0.52
122. RYRPSVCRS  0.872 ± 0.54
123. SLCILDEQVDHFVAEGVGID  0.876 ± 0.42
124. SDSEGYLVEGWY  0.882 ± 0.87
125. RYRRATTQFAKGHCRSLSFK  0.91 ± 0.47
126. SLIYNRIRFLDGF  0.925 ± 1.1
127. SALLVMPRVAVSSTMVGKAT  0.938 ± 0.45
128. SAWCRSIM  0.952 ± 0.27
129. RWSYA  0.981 ± 0.58
130. RYARWYTQCWTKQRVWRPLD  0.984 ± 0.3
131. SLDGNFTKALLLKIR  1.08 ± 0.35
132. SLYGYCLYARMCTASSKKLI  1.09 ± 0.28
133. SFNHYMFLYFVISGWSSPQA  1.1 ± 0.55
134. RYCNKTFSTLSPVHLF  1.11 ± 0.97
135. SLPNILLSQPMFRRISSMLQ  1.17 ± 0.62
136. SDSIVNKKIVRWYRVFRIGC  1.19 ± 0.51
137. SGVICWYQKLAGINDALRWA  1.21 ± 0.25
138. SIGVFNCNCHRNYEHRYRYM  1.22 ± 0.15
139. RYMVSCRGGGKWQPPLFDMR  1.23 ± 0.66
140. SKRATYFFTASLGTQRCLMK  1.29 ± 0.9
141. SIMGVDRLVVVWYGFDRCGF  1.31 ± 0.66
142. SGCVQLM  1.32 ± 0.74
143. SLSLDSNEKRKRICFW  1.36 ± 0.29
144. RWSVSINWTRSEEHDFRNCV  1.37 ± 0.43
145. SCFLC  1.4 ± 0.18
146. SGTAKGVLAW  1.4 ± 0.63
147. SLRGQAHLQFSLRILSHSS  1.4 ± 0.24
148. SGAYLNKGFSVLAFYIIIVK  1.81 ± 0.26
149. SKCRL  1.92 ± 0.62
150. SAIYRRWAHRAQSAWQVESR  1.94 ± 0.7
151. SFSWLSRMTR  2 ± 0.1
152. RWWSWCSFTSSIFYCYLLCA  2.2 ± 0.13
153. SFGVTFHWN  2.36 ± 0.28
154. SMRFYYA  2.97 ± 0.23
155. SLSLIVVKNGIFLVH  3.16 ± 0.12
156. SCRSRTYERCLSLVNMEREG  3.27 ± 0.13
157. SCVAVRLLWQDMHPRANEPR  3.34 ± 0.13
158. SLQINMTSSICLVST  3.35 ± 0.07
159. SLRFPKKGYVTRCTAWYLGV  3.45 ± 0.083
160. SKCNFVHSRLGIALQYETRL  3.56 ± 0.1
161. SIVMGSVMTFGFDIFL  4.47 ± 0.066
162. SIYRSVIIVMDTKVMRDVLF  4.97 ± 0.067
163. SLPLTVVLYCHRYG  5.05 ± 0.064
164. SACFYTATVFFMYNSFGSNV  5.611 ± 0.055
165. SIVLTIIKHFDYMFQDRGG  6.06 ± 0.07
166. SHGKVVIFSPSHCAGFFSCS  7.699 ± 0.061

In the case of RYCCHMSRSTYNIICCRWTN, the amyloid nucleation score is reported as “inactive”.
With SASDVWCLQMLRSVYFPPQG the amyloid nucleation score was “inactive”.
With SCLNVNVMLYSWESVGPKSG the amyloid nucleation score was “inactive”.
With SDIMDFEY the amyloid nucleation score was “inactive”.
For SFTYLCFKQILKPKCTLLAP, the amyloid nucleation score was “inactive”.
For SITRKRVRRDAGGMVCGLVS, the amyloid nucleation score was “inactive”.
In the case of SLRILRSRS, the amyloid nucleation score is reported as “inactive”.
In the case of SMVVV, the amyloid nucleation score is reported as “inactive”.
